{"source": "paper PMC12903857", "key": {"15-mer B-RAF peptide": {"target": "15-mer B-RAF peptide", "assay": "fluorescence polarisation; fluorescence anisotropy protein titration: 14-3-3σ titrated into 10 nM labeled peptide in the presence of a saturating concentration (100 μM) of a covalent compound, which is named in the quantity of each row; apparent"}, "15-mer A-RAF peptide [1]": {"target": "15-mer A-RAF peptide", "assay": "fluorescence polarisation; fluorescence anisotropy protein titration: 14-3-3σ titrated into 10 nM labeled peptide in the presence of DMSO; apparent"}, "15-mer A-RAF peptide [2]": {"target": "15-mer A-RAF peptide", "assay": "fluorescence polarisation; fluorescence anisotropy; Kd of the 15-mer peptides, told apart by the paper from the appKd in the presence of DMSO"}}, "note": "pKd: −log10 of the molar value."}
{"substance": "14-3-3σ (from UniProt P31947 1-248) (natural protein)", "values": [{"measurement": "fold stabilization with 22 (against DMSO)", "setting": "15-mer B-RAF peptide", "value": 448, "unit": "fold"}, {"measurement": "fold stabilization with 23 (against DMSO)", "setting": "15-mer B-RAF peptide", "value": 448, "unit": "fold"}, {"measurement": "pKd", "setting": "15-mer A-RAF peptide [1]", "value": 5.52}, {"measurement": "pKd", "setting": "15-mer A-RAF peptide [2]", "value": 5.10}]}
